Reference: the RNAGym collection of RNA variant scans (doi:10.7554/elife.80360)

B1: Hammerhead Ribozyme (parent)
chain: ACCGGAUGUGCUUUCCGGUCUGAUGAGUCCGUGAGGACGAAACAG

Variants of: B1
Assay: self-cleavage, relative activity (ratio to wild type); higher = more cleavage; co-transcriptional
ACCGGAUGUGCUUUCCGGUUUGAUGAGUCCGUGAGGACGCAACAG [C20U A40C] showed a self-cleavage of 0.407. For ACCGGAUGUGCUUUCCGGUUUGAUGAGUCCGUGAGGACGUAACAG [C20U A40U], the self-cleavage was 0.246. Work on ACCGGAUGUGCUUUCCGGUUUGAUGAGUCCGUGAGGACGGAACAG [C20U A40G] yielded a self-cleavage of 0.41. Work on ACCGGAUGUGCUUUCCGGUGUGAUGAAUCCGUGAGGACGAAACAG [C20G G27A] yielded a self-cleavage of 0.381. Variant ACCGGAUGUGCUUUCCGGUGUGAUGAUUCCGUGAGGACGAAACAG [C20G G27U] has a self-cleavage of 0.265. Variant ACCGGAUGUGCUUUCCGGUGUGAUGACUCCGUGAGGACGAAACAG [C20G G27C] has a self-cleavage of 0.252. Work on ACCGGAUGUGCUUUCCGGUGUGAUGAGUCCGUUAGGACGAAACAG [C20G G33U] yielded a self-cleavage of 0.367. Variant ACCGGAUGUGCUUUCCGGUGUGAUGAGUCCGUCAGGACGAAACAG [C20G G33C] has a self-cleavage of 0.327. ACCGGAUGUGCUUUCCGGUGUGAUGAGUCCGUAAGGACGAAACAG [C20G G33A] gave a self-cleavage of 0.333. Variant ACCGGAUGUGCUUUCCGGUUUGAUGAGUCUGUGAGGACGAAACAG [C20U C30U] has a self-cleavage of 0.594. ACCGGAUGUGCUUUCCGGUUUGAUGAGUCAGUGAGGACGAAACAG [C20U C30A] showed a self-cleavage of 0.464. ACCGGAUGUGCUUUCCGGUUUGAUGAGUCGGUGAGGACGAAACAG [C20U C30G] showed a self-cleavage of 0.398. Variant ACCGGAUGUGCUUUCCGGUGUGAAGAGUCCGUGAGGACGAAACAG [C20G U24A] has a self-cleavage of 0.399. Work on ACCGGAUGUGCUUUCCGGUGUGACGAGUCCGUGAGGACGAAACAG [C20G U24C] yielded a self-cleavage of 0.302. In the case of ACCGGAUGUGCUUUCCGGUGUGAGGAGUCCGUGAGGACGAAACAG [C20G U24G], the self-cleavage is reported as 0.353. With ACCGGAUGUGCUUUCCGGUUUGAUGAGUACGUGAGGACGAAACAG [C20U C29A] the self-cleavage was 0.296. With ACCGGAUGUGCUUUCCGGUUUGAUGAGUUCGUGAGGACGAAACAG [C20U C29U] the self-cleavage was 0.395. For ACCGGAUGUGCUUUCCGGUUUGAUGAGUGCGUGAGGACGAAACAG [C20U C29G], the self-cleavage was 0.378. Work on ACCGGAUGUGCUUUCCGGUGUGAUGAGUCCGUGCGGACGAAACAG [C20G A34C] yielded a self-cleavage of 0.365. In the case of ACCGGAUGUGCUUUCCGGUGUGAUGAGUCCGUGGGGACGAAACAG [C20G A34G], the self-cleavage is reported as 0.245. Variant ACCGGAUGUGCUUUCCGGUGUGAUGAGUCCGUGUGGACGAAACAG [C20G A34U] has a self-cleavage of 0.383. In the case of ACCGGAUGUGCUUUCCGGUUUUAUGAGUCCGUGAGGACGAAACAG [C20U G22U], the self-cleavage is reported as 0.341. Variant ACCGGAUGUGCUUUCCGGUUUCAUGAGUCCGUGAGGACGAAACAG [C20U G22C] has a self-cleavage of 0.377. For ACCGGAUGUGCUUUCCGGUUUAAUGAGUCCGUGAGGACGAAACAG [C20U G22A], the self-cleavage was 0.338. With ACCGGAUGUGCUUUCCGGUUUGAUGAGUCCGUGUGGACGAAACAG [C20U A34U] the self-cleavage was 0.356. ACCGGAUGUGCUUUCCGGUUUGAUGAGUCCGUGCGGACGAAACAG [C20U A34C] gave a self-cleavage of 0.369. In the case of ACCGGAUGUGCUUUCCGGUUUGAUGAGUCCGUGGGGACGAAACAG [C20U A34G], the self-cleavage is reported as 0.407. In the case of ACCGGAUGUGCUUUCCGGUGUGAUGAGUCCGUGAGUACGAAACAG [C20G G36U], the self-cleavage is reported as 0.305. In the case of ACCGGAUGUGCUUUCCGGUGUGAUGAGUCCGUGAGCACGAAACAG [C20G G36C], the self-cleavage is reported as 0.274. Variant ACCGGAUGUGCUUUCCGGUGUGAUGAGUCCGUGAGAACGAAACAG [C20G G36A] has a self-cleavage of 0.31. With ACCGGAUGUGCUUUCCGGUUUGAUGAGUCCGUGAGGGCGAAACAG [C20U A37G] the self-cleavage was 0.565. For ACCGGAUGUGCUUUCCGGUUUGAUGAGUCCGUGAGGCCGAAACAG [C20U A37C], the self-cleavage was 0.549. In the case of ACCGGAUGUGCUUUCCGGUUUGAUGAGUCCGUGAGGUCGAAACAG [C20U A37U], the self-cleavage is reported as 0.403. Variant ACCGGAUGUGCUUUCCGGUUUGAUGAGUCCGUGAGGACGACACAG [C20U A41C] has a self-cleavage of 0.373. ACCGGAUGUGCUUUCCGGUUUGAUGAGUCCGUGAGGACGAUACAG [C20U A41U] showed a self-cleavage of 0.37. Variant ACCGGAUGUGCUUUCCGGUUUGAUGAGUCCGUGAGGACGAGACAG [C20U A41G] has a self-cleavage of 0.349. Work on ACCGGAUGUGCUUUCCGGUUUGAUGAGUCCGUGAGGACGAACCAG [C20U A42C] yielded a self-cleavage of 0.323. Variant ACCGGAUGUGCUUUCCGGUUUGAUGAGUCCGUGAGGACGAAGCAG [C20U A42G] has a self-cleavage of 0.258. With ACCGGAUGUGCUUUCCGGUUUGAUGAGUCCGUGAGGACGAAUCAG [C20U A42U] the self-cleavage was 0.322. ACCGGAUGUGCUUUCCGGUGUGAUGAGUCCUUGAGGACGAAACAG [C20G G31U] gave a self-cleavage of 0.356. ACCGGAUGUGCUUUCCGGUGUGAUGAGUCCAUGAGGACGAAACAG [C20G G31A] showed a self-cleavage of 0.319. Work on ACCGGAUGUGCUUUCCGGUGUGAUGAGUCCCUGAGGACGAAACAG [C20G G31C] yielded a self-cleavage of 0.321. ACCGGAUGUGCUUUCCGGUGUGAUGAGUCCGUGAUGACGAAACAG [C20G G35U] gave a self-cleavage of 0.353. In the case of ACCGGAUGUGCUUUCCGGUGUGAUGAGUCCGUGACGACGAAACAG [C20G G35C], the self-cleavage is reported as 0.361. ACCGGAUGUGCUUUCCGGUGUGAUGAGUCCGUGAAGACGAAACAG [C20G G35A] gave a self-cleavage of 0.287. Variant ACCGGAUGUGCUUUCCGGUGUGAUGAGUGCGUGAGGACGAAACAG [C20G C29G] has a self-cleavage of 0.35. ACCGGAUGUGCUUUCCGGUGUGAUGAGUUCGUGAGGACGAAACAG [C20G C29U] showed a self-cleavage of 0.336. ACCGGAUGUGCUUUCCGGUGUGAUGAGUACGUGAGGACGAAACAG [C20G C29A] showed a self-cleavage of 0.312. In the case of ACCGGAUGUGCUUUCCGGUUUGAUGAGUCCGUGAGGACGAAAAAG [C20U C43A], the self-cleavage is reported as 0.264. Work on ACCGGAUGUGCUUUCCGGUUUGAUGAGUCCGUGAGGACGAAAGAG [C20U C43G] yielded a self-cleavage of 0.278. For ACCGGAUGUGCUUUCCGGUUUGAUGAGUCCGUGAGGACGAAAUAG [C20U C43U], the self-cleavage was 0.325. Work on ACCGGAUGUGCUUUCCGGUGUGAUGCGUCCGUGAGGACGAAACAG [C20G A26C] yielded a self-cleavage of 0.404. Work on ACCGGAUGUGCUUUCCGGUGUGAUGUGUCCGUGAGGACGAAACAG [C20G A26U] yielded a self-cleavage of 0.29. With ACCGGAUGUGCUUUCCGGUGUGAUGGGUCCGUGAGGACGAAACAG [C20G A26G] the self-cleavage was 0.302. In the case of ACCGGAUGUGCUUUCCGGUGUGAUGAGUCCGCGAGGACGAAACAG [C20G U32C], the self-cleavage is reported as 0.325. ACCGGAUGUGCUUUCCGGUGUGAUGAGUCCGAGAGGACGAAACAG [C20G U32A] showed a self-cleavage of 0.305. ACCGGAUGUGCUUUCCGGUGUGAUGAGUCCGGGAGGACGAAACAG [C20G U32G] showed a self-cleavage of 0.28.
